In PMC9063841, “Structural insights into choline-O-sulfatase reveal the molecular determinants for ligand binding” (Acta Crystallographica. Section D, Structural Biology, 2022):

Legend:
[1] = molecular target: T1, SmeCOSe (Sinorhizobium meliloti, UniProt O69787); assay: absorbance at […] nm (p-nitrophenol release); format: biochemical; details: pH 7.0
T1 construct: gene betC; full length, C-terminal His6 (pET-21b(+), plasmid pSERQF5), E. coli BL21(DE3); homotetramer, about 201 kDa; Cys54 is formylglycine in wild type; natural difference at residue 105 (printed F105L against strain GR4 CP003933.2, but L105F)

[2] = molecular target: wild-type Sinorhizobium (Ensifer) meliloti choline-O-sulfatase (Sinorhizobium (Ensifer) meliloti CECT4857) (UniProt O69787); assay: dynamic light scattering; 20 uM (in protomer units), 20 mM Tris-HCl pH 8.0, 20 C; mass from the hydrodynamic radius assuming a spherical shape
[3] = molecular target: wild-type Sinorhizobium (Ensifer) meliloti choline-O-sulfatase (Sinorhizobium (Ensifer) meliloti CECT4857) (UniProt O69787); assay: SEC; 100 ul samples of SmeCOSe (0.1-1 mg/ml, three concentrations) on a Tricorn Superdex 200 column, 20 mM Tris-HCl pH 8.0; mass estimated against standards

Q: How did the Km [1] turn out when `O=[N+]([O-])c1ccc(OS(=O)(=O)O)cc1` [pNPS] was run?
A: 45.7 ± 12.5 mM

Q: For “wild-type Sinorhizobium (Ensifer) meliloti choline-O-sulfatase (from UniProt O69787 2-512) (enzyme)”, which stoichiometry N [2] is on record?
A: 4

Q: What about the stoichiometry N [3] of the same compound?
A: 4
